This passage reports protein production results from a protein production outcome set (Wang et al. 2014).
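Note: failed if final PepcDB status was selected cloned or expressed and not failed if soluble or beyond.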

A short description of the data set: label from the status in PepcDB records.
As to “MKNILPLMWVIILMFVISQGVSAKGKKEIPKSEYGSYIVIMDLNPAIAYEGDIKGFKATKPGKNKKINPKSANVRKYTSMLSKTHDAALAKANVKSKDKVHDYGIALNGFSAKMTHEQAVALSSQDGVAKVMPDVLRQKMTDNSPSFLDLGGPAGPWLKGYDGEGIVIGVIDTGIWPEHPSFTDDGSYSTPPILLDDSRPNCEFGNTGHRPDDVAFSCNNKLIGARQMLDTYRLIVGATSDEFDSARDEDGHGTHTSSTSGGNANVPANMLGNDYGLISGIAPRAHIVMYKGLGDLGGFGSDLAAAIDQAVADGVDVINYSIGSSSFAIGPDDVAFLFAENAGVFVATSNGNSGPAPATTGSPASTPWVTSVGASTQNRTYQGSASSVGEWEFFGASITAGTAELALIDSAEAGSELCIPGVLDPVAVAGKIVLCLRGAIARVDKSKAVNIAGGAGMILYNANDGESQVTDSHWVPSVHINNTDGLVIKGYISNDASTAVAQIMGGTYTEIDAPSMAGFSSRGPNLLSGDIIKPDVTAPGVNIIAGQTPASEGRGELFQMISGTSMSSPHVAGLFAMIKQAHPNWSPSTAKSALMTTAYQDVMKEDEATPADAFDMGAGHVNPGGKANKGSIFEPGLAYQAGLFEYAAYSCGAELGIFSPGTCGFLESLGIPTDPANLNLPSIGIANVIGSKTVYRSVTGVAKDSGWRTYSVDVDAPAGYEVSVLPASIKLKSGMSATYAVTITNTASPAGEWAHGSITWRDSNDHYSVYSPIAVKGALFEAPANITGSSETGSASIDVTFGYTGDYTASGYGLTAATVDIDSVVQDPDQIFDPGDTFSNAHAIVVSGAAYLRIAIPGVADPNADLDIFLLDSVGNIVGVSANGGTDELIEMELPGDDTYTLWVHGWSAPGGSTDYELYSWVVPMASGSLTVASAPSSATLGATETIGVDWTGATNGKWHFGVIGHSDAGGLIGATLVEVDNR”, the protein production entry is “failed”. With “MEERELTLSDILLMFKRRSKLFWLVLVLTVFATGIYLFLATPQYEAYARVKVSTQKGMRLGLSIEGLLGGLSSLLGGGGSQEDEIQIMLSRRNIIAVIDELDLVHKLLDEKDIEKAKKNGLTEDDLKLSLYSYMVEKLITVEPVKNSSILEVKVTWHEPKLAAEIANKIVENYTKISENIAKSQLGAKMDFLEEQIPKVEQELKEAESKLKVFKEQNRIYSVEAQTQVLIDRYASLLQKMEEARIAMEATQKQSEFFSKELKDLDIEIEQIKDSITFDPIISQLKSNMINIQIELAGLMERYTETNPAVVQKKAELQETQKQLEIELKRLLTSQVKKTGNPVYEEALSSLIKAESEKILYQSQYEAFKKLYEDMEKELSKLPELEQKLIELERDYKVKETIYTTLLQAKYESLISEAAITANANVIDWAVPPLEPSKPNKKLTLAIGGVLGIFLGILAVFFAEFSDRRIKSESEAEYLLGLEKIVARVPLTQNEEVMEKALGIPAVKSGKVTFITALEDGAGVSTLAKHMAKLLSKKEKVLLLTEEKVEGTFDRKDVFDLLKNPDVLEELKERYDKIIVDAPSLKRTPDFLPIAEKSDTVYIVIRLEHTLSEDLKTLHTLKKIDGFILNGLTKKNSTYVE” the entry was “failed”; with “MHPVLIFLFALIAILLFTAKFRLHPFLSLVLVSLLTGILAGEPIRTIEAVTEGLGSVFSRFAIIITSGSIIGLLLQKTGGMSLIASDITRFFKNPLLALSFLGFLFSVPTMCYILAYVIFIPIAKELSSRFNYPPISTATALALGAVASFNLVYPSPVIISAAEELSANRDMLILLGFLTAVPTSFSGYLYARSLGKAEVSGMNEGGVIREKTIVKEKKDLSQENGALQRTENRKPGRFEAYAPIFIPLFLILFEAVLNNPNTLFTFLGNPNVALLIGVLLSIFSGRVLGLPMIRVQVEKAIKRSGVVLLDLCGGGALGATLAMTGAGEALGKFFLQFNLPHILVPFLVAAALQTVQGSRVVTMLVAPSLLLPLVPELGLPPEILILSMASGTFMISHVNDPFFWIFGELAELTPSEVFRSNTLGNALMGVVSFLIVSGIYFFFY”, “failed”; with “MSTLQTPGATLYSFRRCPYAMRARLALRYAGVPMRIVEVSLKAKPAEMLALSAKGTVPVLALEDRVIDESLEIMHWALAQHDPEDWRLTADPTAQAQMAALIAENDQVFKVHLNRYKYAERYPEAPMEHYRAQGEAFLARLDSLLQQRRYLLAEHPSLADMALLPFVRQFAHVDREWFAQTPYRSLQEWLQERLASELFLAVMAKQ”, “failed”.

For the sequence “NPVILADLDDTLFQTRRKMVDELALAPYKTGALDRSLAPRSFMTQEQAMLVDWMLEHADLIPVTARGTEEMSRVTIPFHSWAITTHGAVVLTPEKVADEQWQHHITQSLTPYKQPLLRLQQSITQLMAERNIDGWARINYEYDDLPIYLVMKHNDSARLDELYAIGDEIEKIFSTKGFYIHRNSNNIAWLPEPIEKGKAVTYLLNKLKAERGVFPVIGFGDSLSDHRFMKLCN”, the protein production result was “not failed”.
